# From the supplement of paper PMC10567573
# ± gives the standard deviation.
# Experiment: protein stability index of a GFP-peptide fusion (GPS, HEK-293T) (PSI 1-6); higher = more stable
# Settings: c terminus: a fixed tail appended
# 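Also: 24-mer peptide tiles fused after GFP, lentivirally expressed, FACS-sorted into six equal bins by GFP/DsRed ratio, decoded by Illumina sequencing, PSI is the read-weighted mean bin number.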
Sequence,protein stability index (treatment: DMSO),"protein stability index (treatment: MLN4924 1 uM, 8 h)"
MEMTRPTPPHLTSAMAENILAAAC [NOL4L],3.38 ± 0.3,3.18 ± 0.34
FGEVRPYFYLGGARGAGPPEPLRI [TRIM35],2.63 ± 0.91,2.76 ± 0.18
LLSLDPVQDKTPLYSQLLQAYKWS [MED27],2.04 ± 0.22,1.97 ± 0.2
RVEESALRALREKLFAHSSDLLSE [PPEF2],2.96 ± 0.49,3.27 ± 0.32
ETIKDLMRQFLRGLDFLHANCIVH [CDK4],3.06 ± 0.64,3.23 ± 0.56
NLLFKPPVESHIQKNKKILKSAKD [KMT2E],3.61 ± 0.099,3.6 ± 0.38
YSEHFLQEAKLLHWNGRHKPWDFP [GLT8D2],2.17 ± 0.21,2.41 ± 0.36
KCRSTISAEKCGPPPPIDNGDITS [CFHR2],4.52 ± 0.071,4.45 ± 0.29
KKSGEKEQHISKCKKAFREGSRKS [KMT2E],4.23 ± 0.78,4.61 ± 0.27
APFPPPPAADGARAPRSPGQVTPR [C6orf223],5.14 ± 0.54,5.25 ± 0.11
SSSVSISHSASATGNVCIEEIDVD [LMNB1],5.38 ± 0.15,5.4 ± 0.21
LTSLKDLYKSLKTLSAELVPWLNL [CEP70],3.15 ± 0.57,3.07 ± 0.42
LLESSSSYKNLTLKFHKLVNVTIH [MCOLN1],2.58 ± 0.41,2.33 ± 0.55
TPEEQGELEPLKGNFDWEAIFDAG [FOXJ1],5.29 ± 0.28,5.41 ± 0.088
CCVKTELLGEETPMAADEGSAEKQ [EHMT1],5.45 ± 0.22,5.47 ± 0.12
IICEAHKVLGNRWAEIAKMLPGRT [MYBL2],2.25 ± 0.099,2.2 ± 0.16
TAERKQEQKTGTEAEAADSGAVGA [MFSD9],5.56 ± 0.28,5.65 ± 0.23
SAKDGGPQPPDAPQLVSSAREGSS [PLEKHN1],5.49 ± 0.19,5.39 ± 0.17
WTSFICDTYIVLAWISKIKGSPDV [SMIM2],3.52 ± 0.58,2.53 ± 0.38
MSSASGLRRGHPAGGEENMTETDA [CASP6],5.3 ± 0.33,5.39 ± 0.16
SAETSGGLLICLPREQAARFCSEI [SEPHS2],2.31 ± 0.27,2.18 ± 0.26
SDHCITSSDMMDSSSFSNLDLSEE [VDR],5.48 ± 0.13,5.42 ± 0.16
SIYGIPHSTLEYKVKERLGTLKNP [LCOR],3.12 ± 0.31,3.2 ± 0.52

Sequence,protein stability index (treatment: DMSO),"protein stability index (treatment: MLN4924 1 uM, 8 h)"
MSEPAGDVRQNPCGSKACRRLFGP [CDKN1A],3.58 ± 0.39,3.61 ± 0.14
TNTHPPASLPSQKYPGPQAEGDSE [CHGA],5.43 ± 0.2,5.57 ± 0.13
GYSTPADIWSTACMAFELATGDYL [SRPK2],2.1 ± 0.33,2.54 ± 0.5
RFAWPKVLKISYKRNNFYIKIRPG [EPB41L3],2.89 ± 0.63,2.2 ± 0.82
LDSVSPCPSSPKQIHLDVDNDRTT [DLC1],5.37 ± 0.13,5.55 ± 0.099
VNSSIKTFFCPNDTYNDMATLFFN [CLCN6],2.13 ± 0.31,2.26 ± 0.14
QRNGLVFIYDMCGSNYANFELDLG [PTPN9],2.84 ± 0.23,2.37 ± 0.57
EPLYNWQATKASLKERFAFLFNSE [BTBD1],2.97 ± 0.22,2.78 ± 0.37
VLSRLQDAAVVRPGFLSTAEEETL [ALKBH7],4.21 ± 0.17,4.12 ± 0.55
ARIVEIYSRRLQVQERLTKQIAVA [GCH1],2.33 ± 0.37,2.37 ± 0.2
DTDKWIQKAPMTTVRGLHCMCTVG [KLHL13],2.32 ± 0.25,2.81 ± 0.35
YNDVMQENYETVISLALFVLPKPK [ZNF75A],2.82 ± 0.64,2.71 ± 0.84
NRFVQLSGRPHLPGKKKIRWDPVR [KLHDC10],2.5 ± 0.6,2.49 ± 0.52
CWNTSYCSIKCQQEHWHAEHKRTC [ZMYND11],2.31 ± 0.39,2.32 ± 0.22
FWPAKVMQKEDNQVDVRFFGHHHQ [ZMYND11],2.71 ± 0.52,2.47 ± 0.18
DQSDEGSSSQKEESPSTLQVLPDS [MAGEA10],5.66 ± 0.21,5.56 ± 0.16
REPDWGDGDAPGSLLPAQVAACAQ [CEBPD],5.04 ± 0.28,4.99 ± 0.47
KLHYPELYVLKGGYKEFFMKCQSY [CDC25A],2.42 ± 0.5,2.04 ± 0.33
PQKSYFIRLYGLQAGRLLWEQELY [WAS],2.28 ± 0.32,2.15 ± 0.19
SSSSGPGHGEPDVLKDELQLYGDA [TMEM40],5.3 ± 0.15,5.32 ± 0.19
ANLTPNVGGYFVDKFVATMYHYLQ [P3H4],2.38 ± 0.69,2.23 ± 0.32
YLLALTIIVSIVHSVFEFLAFKND [CLPTM1],2.985 ± 0.024,2.85 ± 0.5
GDEISIKKKNTNKQEMGTYLRFIV [ZMYND11],2.12 ± 0.087,2.12 ± 0.24

Sequence,protein stability index (treatment: DMSO),"protein stability index (treatment: MLN4924 1 uM, 8 h)"
VRAWDLETGKLLWKVRYDTFIVSC [WDR88],2.67 ± 0.069,2.11 ± 0.48
ALDERAKVLHEDKQTREQLHSISD [TRIM29],5.25 ± 0.27,5.31 ± 0.37
AIYFTAYDQLKAFLCGRALTSDLY [SLC25A39],3.35 ± 0.83,3.37 ± 0.57
PLEAMYMQCPVIAVNSGGPLESID [ALG2],3.61 ± 0.33,3.86 ± 0.22
DTYDSVYLHPNSYSCACLASGSVL [HDAC6],2.21 ± 0.15,2.3 ± 0.25
MLVDGIDPNFKMEHQNKRSPLHAA [EHMT1],3.41 ± 0.39,3.67 ± 0.31
RRERNNIAVRKSRDKAKMRNLETQ [CEBPB],4.28 ± 0.18,4.5 ± 0.19
IDSYDPSTGEVYCRVPNSGKDEIE [ALDH8A1],4.97 ± 0.2,4.92 ± 0.2
SMEVFTHYDLLNLNGTKVAEGHKA [LOXL2],4.39 ± 0.16,3.85 ± 0.42
ETQEQDVDLVQKYLEKYYNLKNDG [MMP1],3.99 ± 0.38,3.92 ± 0.3
IIDYLEQTFLDERTPRLMPDKESM [GDAP1],2.6 ± 0.27,2.82 ± 0.28
ELDEPQHEMVAHRHRQEVLCKEMV [ZSCAN9],4.72 ± 0.24,4.76 ± 0.26
RWPFDHNDFGVFLCKLFPFLQKSS [EDNRA],2.2 ± 0.19,2.05 ± 0.38
MKQRIAEENIMKSNIDKKFSAHYD [FAM50A],3.85 ± 0.2,3.97 ± 0.14
LSGATKKGTEKQTTSETQKSVQCG [NETO1],5.17 ± 0.27,5.22 ± 0.24
LTRHTKKTHSQELMKESLQTGDLL [PLAGL1],4.35 ± 0.28,4.59 ± 0.12
VLVLAVQVHAWQLYYSKKLLDSWF [JAGN1],3.23 ± 0.49,3.06 ± 0.91
GSKGEKDLGASSLHVNGESLEMDS [EHMT1],5.28 ± 0.26,5.39 ± 0.27
RNTSWGVVQEPPGRASRFLQSISW [TLE6],2.47 ± 0.28,2.46 ± 0.3
FKYINTVISCTIFIVGMVGNATLL [EDNRA],3.56 ± 0.57,2.89 ± 0.61
PGAGDPAPGIGPPEPWPGGCTGDE [MYCL],5.38 ± 0.057,5.16 ± 0.43
KPDYEYLRTLFTDLFEKKGYTFDY [CSNK1G1],2.4 ± 0.47,2.31 ± 0.15
YERSFIHKIKHKHILAKNYFSQVP [IQUB],2.12 ± 0.61,2.24 ± 0.27

Sequence,protein stability index (treatment: DMSO),"protein stability index (treatment: MLN4924 1 uM, 8 h)"
RREAVQRGRMPPTQPTHGQFALTN [NR2F2],3.9 ± 0.29,3.99 ± 0.25
RVFRVTFLMLAVSLTVPLLGAMML [APMAP],2.2 ± 0.43,2.4 ± 0.55
LMAEGLLPAVKVFLDWLRTNPDLI [SMG5],2.57 ± 0.38,2.6 ± 0.56
HLPADSEVTLEANPTSAPGSRLAE [RSAD1],5.49 ± 0.077,5.39 ± 0.24
GFFSSAFQARLSGNNLHNASIPEH [POMT2],2.81 ± 0.44,3.07 ± 0.35
VRNDSCVVHEDFREDILSCYDVYS [PKD2L1],2.99 ± 0.34,3.16 ± 0.28
SDYESIEVPDSYTGPRLSFPLLPD [PPEF2],4.13 ± 0.19,4.09 ± 0.15
KAETKTKKAAESLRRSVEKYNSAR [FCHO1],4.64 ± 0.22,4.72 ± 0.075
FSEQVFKVASSDLVNMGISVVSYT [FLOT1],2.66 ± 0.72,2.39 ± 0.44
TGLNNGRIKIWDVYTGKLLLNLVD [WSB1],2.54 ± 1.3,2.25 ± 0.61
AHLGEEAHKCLECGKCFSQNTHLT [ZNF263],3.45 ± 0.34,3.55 ± 0.48
TPTSLSSLSNAVANTMEHLSLLDN [FBXO33],4.44 ± 0.065,4.44 ± 0.21
RLLSVPELCHHVAEVWVSGTIFIR [RETREG3],2.96 ± 0.4,2.69 ± 0.53
NKCSGMRFPLQEENSVTHHEVKCQ [KMT5A],4.79 ± 0.42,4.61 ± 0.37
NLIYRSTRHLKRLALMIQSSGNTV [TMEM192],2.93 ± 0.43,2.67 ± 0.42
QKAGVTRSGRLILWEAPPLGAGGG [NEK8],3.31 ± 0.29,2.95 ± 0.32
RSRSLDIQPSSEGLGPTSEPFPSS [SPAG8],5.46 ± 0.23,5.52 ± 0.094
AGGRVFVLPCIQQIQRISLNTLTL [FLOT1],2.96 ± 0.57,2.93 ± 0.59
RENEELSARYLSQCQEAEQARAEL [FBF1],5.38 ± 0.16,5.34 ± 0.09
EVFEGREDSIFGDPKKLLTQYFVQ [MAGEA6],2.34 ± 0.18,2.46 ± 0.18
